Legend:
SHP2-C SH2 = test: SH2 binding enrichment of the phosphorylated peptide, bacterial display (enrichment ratio); higher = better substrate or ligand; peptides without Tyr show the background
Grb2 SH2 = Grb2 SH2 (UniProt P62993); test: as above
c-Src SH2 = test: as above
c-Src = test: phosphorylation enrichment, bacterial display (enrichment ratio); higher = better substrate or ligand; peptides without Tyr show the background
Fer (mouse) = test: as above
FGFR3 = FGFR3 (UniProt P22607); test: as above
Jak2 = Jak2 (UniProt O60674); test: as above
Jak2, sequence (O60674 whole entry, looked up): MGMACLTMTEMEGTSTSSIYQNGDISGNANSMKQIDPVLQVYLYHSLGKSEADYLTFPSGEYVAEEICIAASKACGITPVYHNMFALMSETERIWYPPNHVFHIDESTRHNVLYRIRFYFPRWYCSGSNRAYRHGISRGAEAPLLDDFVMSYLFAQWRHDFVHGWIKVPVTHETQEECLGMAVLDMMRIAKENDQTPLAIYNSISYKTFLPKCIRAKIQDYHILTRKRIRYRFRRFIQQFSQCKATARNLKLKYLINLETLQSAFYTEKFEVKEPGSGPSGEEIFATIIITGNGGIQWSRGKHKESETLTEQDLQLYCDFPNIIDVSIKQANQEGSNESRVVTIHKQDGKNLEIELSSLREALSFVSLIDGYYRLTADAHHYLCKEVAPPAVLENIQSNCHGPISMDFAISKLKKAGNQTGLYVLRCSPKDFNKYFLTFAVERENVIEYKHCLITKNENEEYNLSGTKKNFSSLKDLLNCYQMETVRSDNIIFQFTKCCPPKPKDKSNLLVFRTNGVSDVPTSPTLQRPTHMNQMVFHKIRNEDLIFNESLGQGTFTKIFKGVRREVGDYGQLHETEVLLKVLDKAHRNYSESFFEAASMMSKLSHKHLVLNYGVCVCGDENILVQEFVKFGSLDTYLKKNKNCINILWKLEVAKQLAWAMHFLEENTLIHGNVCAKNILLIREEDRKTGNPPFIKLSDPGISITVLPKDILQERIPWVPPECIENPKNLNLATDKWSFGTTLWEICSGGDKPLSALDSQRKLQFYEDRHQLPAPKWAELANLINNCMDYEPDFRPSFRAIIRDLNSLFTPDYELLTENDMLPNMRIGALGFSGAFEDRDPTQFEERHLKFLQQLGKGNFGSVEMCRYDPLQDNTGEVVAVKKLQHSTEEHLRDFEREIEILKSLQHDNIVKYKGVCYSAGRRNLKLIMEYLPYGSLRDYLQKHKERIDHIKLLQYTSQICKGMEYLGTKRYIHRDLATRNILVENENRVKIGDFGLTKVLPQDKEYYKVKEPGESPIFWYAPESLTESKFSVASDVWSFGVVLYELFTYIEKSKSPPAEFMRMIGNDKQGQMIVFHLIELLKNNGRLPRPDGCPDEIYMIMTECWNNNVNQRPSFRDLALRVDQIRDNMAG

FGFR1 = FGFR1 (UniProt P11362); test: as above
AncSZ = test: as above
MERTK = MERTK (UniProt Q12866); test: as above
MERTK, sequence (Q12866 whole entry, looked up): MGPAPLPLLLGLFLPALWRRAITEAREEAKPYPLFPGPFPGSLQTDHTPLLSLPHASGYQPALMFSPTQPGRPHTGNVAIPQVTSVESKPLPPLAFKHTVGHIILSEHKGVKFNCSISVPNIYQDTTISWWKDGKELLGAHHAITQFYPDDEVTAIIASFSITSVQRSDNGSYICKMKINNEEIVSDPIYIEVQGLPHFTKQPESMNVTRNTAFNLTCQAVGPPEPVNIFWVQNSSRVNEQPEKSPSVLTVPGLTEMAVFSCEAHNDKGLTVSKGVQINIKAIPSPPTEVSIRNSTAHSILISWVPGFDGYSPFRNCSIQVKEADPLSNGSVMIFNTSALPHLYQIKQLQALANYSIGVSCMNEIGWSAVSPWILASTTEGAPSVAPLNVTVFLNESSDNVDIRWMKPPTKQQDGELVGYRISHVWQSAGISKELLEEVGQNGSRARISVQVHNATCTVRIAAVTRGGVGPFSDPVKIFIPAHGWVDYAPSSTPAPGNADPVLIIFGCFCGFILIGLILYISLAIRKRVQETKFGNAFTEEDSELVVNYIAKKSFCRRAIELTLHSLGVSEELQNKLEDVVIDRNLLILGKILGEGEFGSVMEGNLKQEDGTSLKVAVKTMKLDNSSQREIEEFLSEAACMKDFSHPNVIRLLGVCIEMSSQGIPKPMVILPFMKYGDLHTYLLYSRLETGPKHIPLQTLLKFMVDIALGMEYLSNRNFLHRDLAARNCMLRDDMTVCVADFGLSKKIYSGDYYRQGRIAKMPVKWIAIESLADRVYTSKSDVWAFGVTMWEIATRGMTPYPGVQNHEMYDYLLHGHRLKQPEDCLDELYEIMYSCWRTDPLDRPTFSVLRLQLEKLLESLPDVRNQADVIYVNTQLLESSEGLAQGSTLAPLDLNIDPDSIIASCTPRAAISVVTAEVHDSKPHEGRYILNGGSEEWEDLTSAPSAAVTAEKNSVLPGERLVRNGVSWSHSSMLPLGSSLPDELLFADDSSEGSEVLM

EPHB2 = EPHB2 (UniProt P29323); test: as above
EPHB2, sequence (P29323 whole entry, looked up): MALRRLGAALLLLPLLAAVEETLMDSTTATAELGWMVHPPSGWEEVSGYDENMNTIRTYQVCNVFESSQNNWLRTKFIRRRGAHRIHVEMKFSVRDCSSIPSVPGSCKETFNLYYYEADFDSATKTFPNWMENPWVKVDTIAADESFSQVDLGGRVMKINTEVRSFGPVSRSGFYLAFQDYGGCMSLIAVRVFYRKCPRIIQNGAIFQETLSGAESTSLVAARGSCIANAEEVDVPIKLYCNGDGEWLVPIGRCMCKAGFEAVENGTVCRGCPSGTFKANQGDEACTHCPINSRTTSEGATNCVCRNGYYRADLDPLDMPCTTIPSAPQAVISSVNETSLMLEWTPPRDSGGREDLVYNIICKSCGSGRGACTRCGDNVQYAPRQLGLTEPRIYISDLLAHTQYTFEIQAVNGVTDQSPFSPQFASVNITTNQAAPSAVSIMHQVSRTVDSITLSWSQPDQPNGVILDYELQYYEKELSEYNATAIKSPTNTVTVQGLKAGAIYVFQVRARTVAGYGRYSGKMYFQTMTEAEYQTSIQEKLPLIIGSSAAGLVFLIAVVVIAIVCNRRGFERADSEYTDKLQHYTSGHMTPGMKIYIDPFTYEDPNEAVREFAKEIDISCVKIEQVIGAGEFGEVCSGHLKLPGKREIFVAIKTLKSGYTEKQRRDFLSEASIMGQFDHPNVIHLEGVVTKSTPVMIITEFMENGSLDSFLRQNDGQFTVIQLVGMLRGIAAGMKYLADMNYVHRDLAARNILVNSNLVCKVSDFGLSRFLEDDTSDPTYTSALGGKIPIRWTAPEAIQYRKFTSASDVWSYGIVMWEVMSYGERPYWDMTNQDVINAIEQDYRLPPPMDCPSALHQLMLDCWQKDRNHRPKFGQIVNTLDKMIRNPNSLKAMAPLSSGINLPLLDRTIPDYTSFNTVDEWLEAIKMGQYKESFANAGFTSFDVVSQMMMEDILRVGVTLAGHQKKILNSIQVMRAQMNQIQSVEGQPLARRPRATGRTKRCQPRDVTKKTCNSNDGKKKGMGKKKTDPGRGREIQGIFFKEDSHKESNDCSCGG

Fes = Fes (UniProt P07332); test: as above
Fes, sequence (P07332 whole entry, looked up): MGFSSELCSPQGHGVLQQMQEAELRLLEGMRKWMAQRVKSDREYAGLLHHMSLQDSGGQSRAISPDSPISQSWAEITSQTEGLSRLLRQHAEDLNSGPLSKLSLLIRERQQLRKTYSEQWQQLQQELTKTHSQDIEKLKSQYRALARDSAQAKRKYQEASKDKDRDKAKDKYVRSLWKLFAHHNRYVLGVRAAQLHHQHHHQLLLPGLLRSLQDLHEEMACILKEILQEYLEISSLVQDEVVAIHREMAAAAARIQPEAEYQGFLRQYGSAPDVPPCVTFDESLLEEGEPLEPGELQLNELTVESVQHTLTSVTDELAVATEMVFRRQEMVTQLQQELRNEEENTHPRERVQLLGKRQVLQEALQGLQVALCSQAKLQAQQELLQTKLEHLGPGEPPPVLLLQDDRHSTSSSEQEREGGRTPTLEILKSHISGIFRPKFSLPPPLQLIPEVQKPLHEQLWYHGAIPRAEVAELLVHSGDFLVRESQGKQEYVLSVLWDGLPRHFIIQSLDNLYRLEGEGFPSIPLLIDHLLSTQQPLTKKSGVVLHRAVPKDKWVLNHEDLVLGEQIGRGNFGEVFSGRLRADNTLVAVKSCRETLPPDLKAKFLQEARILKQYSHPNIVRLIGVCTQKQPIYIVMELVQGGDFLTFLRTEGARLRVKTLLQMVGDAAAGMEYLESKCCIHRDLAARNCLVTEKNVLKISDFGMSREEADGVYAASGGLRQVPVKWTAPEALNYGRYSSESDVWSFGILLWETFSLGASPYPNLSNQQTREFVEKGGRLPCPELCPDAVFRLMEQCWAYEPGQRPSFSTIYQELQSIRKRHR

c-Abl (mouse) = test: as above
Fyn = Fyn (UniProt P06241); test: as above
Hck = Hck (UniProt P08631); test: as above
EPHB1 = EPHB1 (UniProt P54762); test: as above
EPHB1, sequence (P54762 whole entry, looked up, the tested form may be a part): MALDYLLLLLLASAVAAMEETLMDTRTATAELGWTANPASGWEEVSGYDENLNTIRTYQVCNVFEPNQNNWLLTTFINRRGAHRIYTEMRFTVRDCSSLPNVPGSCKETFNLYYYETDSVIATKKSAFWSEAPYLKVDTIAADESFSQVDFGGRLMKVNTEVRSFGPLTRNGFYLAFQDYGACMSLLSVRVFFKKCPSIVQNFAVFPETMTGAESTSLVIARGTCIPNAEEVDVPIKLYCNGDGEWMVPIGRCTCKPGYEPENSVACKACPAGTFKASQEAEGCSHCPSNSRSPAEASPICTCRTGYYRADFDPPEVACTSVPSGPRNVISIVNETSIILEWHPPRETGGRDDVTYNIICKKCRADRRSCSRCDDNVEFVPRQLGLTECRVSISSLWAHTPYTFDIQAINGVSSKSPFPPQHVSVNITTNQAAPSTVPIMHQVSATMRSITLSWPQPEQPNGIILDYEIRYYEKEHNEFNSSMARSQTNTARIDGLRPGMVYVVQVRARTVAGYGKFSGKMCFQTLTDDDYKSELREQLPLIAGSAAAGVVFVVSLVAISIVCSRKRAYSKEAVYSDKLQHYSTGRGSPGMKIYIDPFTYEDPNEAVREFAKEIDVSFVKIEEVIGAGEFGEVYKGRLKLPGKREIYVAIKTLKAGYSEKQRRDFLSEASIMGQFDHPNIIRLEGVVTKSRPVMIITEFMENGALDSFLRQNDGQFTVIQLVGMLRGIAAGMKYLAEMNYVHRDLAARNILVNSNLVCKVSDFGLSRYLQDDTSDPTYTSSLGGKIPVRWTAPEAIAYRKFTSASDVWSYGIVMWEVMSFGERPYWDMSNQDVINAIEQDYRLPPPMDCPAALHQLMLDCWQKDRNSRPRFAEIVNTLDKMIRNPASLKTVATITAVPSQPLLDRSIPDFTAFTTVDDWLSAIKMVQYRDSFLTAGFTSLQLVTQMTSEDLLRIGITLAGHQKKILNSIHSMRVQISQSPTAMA
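Wherever SH2 binding enrichment of the phosphorylated peptide, bacterial display is given: peptide library displayed on the E. coli surface as eCPX fusions, selected cells deep-sequenced, score is each peptide's frequency after selection divided by its frequency in the input.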
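Wherever phosphorylation enrichment, bacterial display is given: 11-residue human phosphosite peptides and single-mutation variants displayed on the E. coli surface, counted by deep sequencing, each peptide's frequency after selection divided by its frequency in the unselected input library; frequency after pTyr selection over input frequency; kinase dosed for 20-30% of maximal phosphorylation in three min.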

SH2 binding enrichment (SHP2-C SH2) | SH2 binding enrichment (Grb2 SH2) | SH2 binding enrichment (c-Src SH2) | Sequence | phosphorylation enrichment (c-Src) | phosphorylation enrichment (Fer (mouse)) | phosphorylation enrichment (FGFR3) | phosphorylation enrichment (Jak2) | phosphorylation enrichment (FGFR1) | phosphorylation enrichment (AncSZ) | phosphorylation enrichment (MERTK) | phosphorylation enrichment (EPHB2) | phosphorylation enrichment (Fes) | phosphorylation enrichment (c-Abl (mouse)) | phosphorylation enrichment (Fyn) | phosphorylation enrichment (Hck) | phosphorylation enrichment (EPHB1)
0.515 | 0.581 | 0.539 | FCVVRYCWLRR [MPZ_Y181_Y177C] | 0.738 | 0.404 | 0.709 | 0.586 | 0.552 | 0.718 | 0.656 | 0.603 | 0.76 | 0.773 | 0.606 | 0.577 | 0.45
2.12 | 1.93 | 2.28 | CTTIHYNFLCN [TP53_Y234_M237L_YF] | 0.499 | 0.554 | 0.674 | 0.623 | 0.556 | 0.873 | 0.435 | 0.576 | 0.941 | 0.585 | 0.531 | 0.469 | 0.54
0.955 | 1.06 | 0.859 | EQKKFYNAMKK [SCN5A_Y1495_YF] | 0.373 | 0.34 | 0.339 | 0.569 | 0.394 | 0.484 | 0.379 | 0.317 | 0.576 | 0.52 | 0.325 | 0.367 | 0.299
0.615 | 0.584 | 0.405 | EGLRRYLENGK [HLA-A_Y195_W191G] | 0.336 | 0.291 | 0.427 | 0.6 | 0.315 | 0.463 | 0.52 | 0.323 | 0.473 | 0.419 | 0.397 | 0.398 | 0.346
0.831 | 0.918 | 0.521 | GQECEYPPTQD [METAP2_Y137] | 0.563 | 0.609 | 0.852 | 1.24 | 0.584 | 1.34 | 0.525 | 0.67 | 1.41 | 1.06 | 0.534 | 0.63 | 0.866
1.03 | 0.875 | 7.79 | IVRSLYEDLED [VHL_Y185] | 0.393 | 1.17 | 0.73 | 1.01 | 0.505 | 1.19 | 0.424 | 0.573 | 1.08 | 0.68 | 0.509 | 0.564 | 0.584
0.677 | 0.919 | 0.499 | FDGKDYIALKE [HLA-A_Y147_N151K_YF] | 0.489 | 0.379 | 0.44 | 0.659 | 0.398 | 0.952 | 0.406 | 0.43 | 0.672 | 0.536 | 0.376 | 0.363 | 0.407
0.613 | 0.938 | 0.579 | DDDPEDRKFLE [UPF3B_Y160_Y160D] | 0.503 | 0.56 | 0.641 | 1.17 | 0.51 | 1.12 | 0.541 | 0.501 | 1.24 | 0.867 | 0.56 | 0.594 | 0.586

The remaining lines, values behind:

Sequence | SH2 binding enrichment (SHP2-C SH2) | SH2 binding enrichment (Grb2 SH2) | SH2 binding enrichment (c-Src SH2) | phosphorylation enrichment (c-Src) | phosphorylation enrichment (Fer (mouse)) | phosphorylation enrichment (FGFR3) | phosphorylation enrichment (Jak2) | phosphorylation enrichment (FGFR1) | phosphorylation enrichment (AncSZ) | phosphorylation enrichment (MERTK) | phosphorylation enrichment (EPHB2) | phosphorylation enrichment (Fes) | phosphorylation enrichment (c-Abl (mouse)) | phosphorylation enrichment (Fyn) | phosphorylation enrichment (Hck) | phosphorylation enrichment (EPHB1)
TLSGTYQYIIA [FOXL2_Y81_I80T] | 1.43 | 0.828 | 1.93 | 1.17 | 5.51 | 3.44 | 1.05 | 5.91 | 1.05 | 7.42 | 2.21 | 1.08 | 1.05 | 1.06 | 3.11 | 5.25
IDQDKYAVRFI [FLNA_Y2388] | 0.696 | 0.865 | 0.54 | 0.393 | 0.473 | 0.545 | 0.635 | 0.425 | 0.78 | 0.379 | 0.458 | 0.787 | 0.566 | 0.488 | 0.524 | 0.459
KLVQLYGVCTK [BTK_Y461] | 0.981 | 1.07 | 0.882 | 1.25 | 0.439 | 0.532 | 0.773 | 0.439 | 0.848 | 0.892 | 1.43 | 0.887 | 0.686 | 1.25 | 1.91 | 1.33
MPLDQYSPSFP [FGFR1_Y776] | 0.803 | 1.08 | 0.518 | 0.552 | 0.654 | 0.79 | 0.917 | 0.631 | 0.857 | 0.595 | 0.617 | 0.941 | 0.706 | 0.496 | 0.6 | 0.399
LKETGYVVERP [BCLAF1_Y466] | 0.68 | 0.862 | 0.501 | 0.411 | 0.321 | 0.609 | 0.553 | 0.443 | 0.768 | 0.438 | 0.278 | 0.807 | 0.469 | 0.434 | 0.399 | 0.494
PIYEGYGLPHA [ACTA1_Y171_A172G] | 0.52 | 0.79 | 0.739 | 13.8 | 20.9 | 0.945 | 0.833 | 0.555 | 1.32 | 18.3 | 33.5 | 2.45 | 12.7 | 17.5 | 16.9 | 31
TTPAVYARVTK [CTRB2_Y246_A250T] | 0.383 | 0.696 | 2.11 | 3.55 | 0.378 | 0.496 | 0.618 | 0.262 | 0.443 | 0.725 | 0.768 | 0.442 | 1.32 | 2.46 | 2.42 | 0.665
LTMAPYSSVSV [FAM81A_Y24_L29V] | 3.6 | 0.783 | 3.26 | 1.07 | 9.11 | 0.899 | 0.933 | 0.653 | 1.05 | 0.527 | 0.531 | 1.08 | 0.811 | 0.575 | 0.724 | 0.683

Reference: the supplement of paper PMC10065799, “High-throughput profiling of sequence recognition by tyrosine kinases and SH2 domains using bacterial peptide display” (eLife, 2023)
